Test results as given in article PMC10841842, “Single-molecule quantitation of RNA-binding protein occupancy and stoichiometry defines a role for Yra1 (Aly/REF) in nuclear mRNP organization” (Cell reports, 2023).

Target: the molecule itself
Test: pull-down; mRNP-SiMPull: lysate of cryo-ground yeast cross-linked with 0.2% formaldehyde, PrA-tagged bait pulled down on rabbit IgG Dynabeads at 8°C for 10 min (mTBT16 buffer: 20 mM HEPES-KOH pH 7.4, 12.5 mM KOAc, 2 mM MgCl2, 0.5% Triton X-100, 0.1% Tween 20), eluted by HRV3C protease, captured on a slide by mNG, HA or Yra1 antibody, TIRF imaging; spot counts and photobleaching steps, no-PrA control subtracted …

| Protein | stoichiometry N |
| --- | --- |
| Hpr1-mNG (natural protein, S. cerevisiae, UniProt P17629 1-752, looked up, Hpr1, THO complex component, S. cerevisiae; End of the tag read from the name; also called THO complex component Hpr1; source: S. cerevisiae BY4741/2-derived tagged strain, in cryo-ground cell lysate; not shown: mNeonGreen (mNG), C-terminal, kept) MSNTEELIQNSIGFLQKTFKALPVSFDSIRHEPLPSSMLHASVLNFEWEPLEKNISAIHDRDSLIDIILKRFIIDSMTNAIEDEEENNLEKGLLNSCIGLDFVYNSRFNRSNPASWGNTFFELFSTIIDLLNSPSTFLKFWPYAESRIEWFKMNTSVEPVSLGESNLISYKQPLYEKLRHWNDILAKLENNDILNTVKHYNMKYKLENFLSELLPINEESNFNRSASISALQESDNEWNRSARERESNRSSDVIFAADYNFVFYHLIICPIEFAFSDLEYKNDVDRSLSPLLDAILEIEENFYSKIKMNNRTRYSLEEALNTEYYANYDVMTPKLPVYMKHSNAMKMDRNEFWANLQNIKESDDYTLRPTIMDISLSNTTCLYKQLTQEDDDYYRKQFILQLCFTTNLIRNLISSDETRNFYKSCYLRENPLSDIDFENLDEVNKKRGLNLCSYICDNRVLKFYKIKDPDFYRVIRKLMSSDEKFTTAKIDGFKEFQNFRISKEKIPPPAFDETFKKFTFIKMGNKLINNVWKIPTGLDKIEQEVKKPEGVYEAAQAKWESKISSETSGGEAKDEIIRQWQTLRFLRSRYLFDFDKVNEKTGVDGLFEEPRKVEALDDSFKEKLLYKINQEHRKKLQDAREYKIGKERKKRALEEEASFPEREQKIKSQRINSASQTEGDELKSEQTQPKGEISEENTKIKSSEVSSQDPDSGVAGEFAPQNTTAQLENPKTEDNNAATSNISNGSSTQDMK | 2 |
| Mft1, mNG-tagged (natural protein, S. cerevisiae, UniProt P33441 1-392, looked up, Mft1, THO complex subunit, S. cerevisiae; also called THO complex subunit Mft1; source: S. cerevisiae BY4741/2-derived tagged strain, in cryo-ground cell lysate) MPLSQKQIDQVRTKVHYSEVDTPFNKYLDILGKVTKLTGSIINGTLSNDDSKIEKLTEQNISQLKESAHLRFLDLQSSIDTKKVADENWETCQQETLAKLENLKDKLPDIKSIHSKLLLRIGKLQGLYDSVQVINREVEGLSEGRTSLVVTRAEWEKELGTDLVKFLIEKNYLKLVDPGLKKDSSEERYRIYDDFSKGPKELESINASMKSDIENVRQEVSSYKEKWLRDAEIFGKITSIFKEELLKRDGLLNEAEGDNIDEDYESDEDEERKERFKRQRSMVEVNTIENVDEKEESDHEYDDQEDEENEEEDDMEVDVEDIKEDNEVDGESSQQEDNSRQGNNEETDKETGVIEEPDAVNDAEEADSDHSSRKLGGTTSDFSASSSVEEVK | 2 |
